Experimental data: the supplement of paper PMC6757056
± gives the standard deviation of the averaged measurements.

B1: library; a variant is named by its letters at N, in order (parent)
chain: GCUGUCACCGAGAAACUGUGAAGUAUAUCUUAAACCUGGGCACUUAAAAGAUAUAUGGAGUUAGUAGUGCAACCUGCUCGGUCUGAUGAGUCCNNNNNNGGACGAAACAGC

Assays:
[1] = variants of: B1; experiment: normalized RNA/DNA level without ligand (relative to sTRSVctl = 100) (log10 (% of sTRSVctl)); HEK293T; ligand: cyclic di-GMP (c-di-GMP-II aptamer); higher = less ribozyme self-cleavage, higher mRNA level; details: reporter: mCherry (pCS4076), ligand present: no
Procedure, shortened: (§1)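 RNA level was computed as RNA reads over DNA reads divided by a spiked-in non-cleaving sequence or by the top sequences, then scaled and log-transformed. Scaling was ×100 with log10, the top group was 25 sequences, and the threshold was ≥100 DNA reads. The reads came from HEK293T cells transfected at 4 µg per 6-well well with ribozyme switch library plasmids (mCherry, or eGFP in some ligand experiments). Total RNA was extracted with EDTA 72 h after transfection, with any ligand added 1 h before it.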

[2] = variants of: B1; experiment: normalized RNA/DNA level with ligand (relative to sTRSVctl = 100) (log10 (% of sTRSVctl)); HEK293T; ligand: cyclic di-GMP (c-di-GMP-II aptamer); ligand concentration (+) RNA-Seq: 1 mM; higher = less ribozyme self-cleavage, higher mRNA level; details: reporter: mCherry (pCS4076), ligand present: yes
Procedure, shortened: as §1

Variant | normalized RNA/DNA level without ligand (log10) [1] | normalized RNA/DNA level with ligand (log10) [2]
UUCACG | 1.803 ± 0.018 | 1.9 ± 0.09
UUCACC | 1.778 ± 0.0039 | 1.89 ± 0.078
UUCACA | 1.81 ± 0.029 | 1.89 ± 0.16
CUACUU | 1.56 ± 0.067 | 1.73 ± 0.059
CUACUA | 1.47 ± 0.14 | 1.64 ± 0.072
CUACUC | 1.7 ± 0.034 | 1.83 ± 0.069
CUACUG | 1.64 ± 0.025 | 1.83 ± 0.078
UUAGUU | 1.77 ± 0.019 | 1.86 ± 0.14
UUAGUC | 1.72 ± 0.048 | 1.83 ± 0.086
UUAGUA | 1.609 ± 0.0054 | 1.79 ± 0.13
CUAACC | 1.8 ± 0.038 | 1.84 ± 0.12
CUAACA | 1.662 ± 0.0013 | 1.78 ± 0.09
CUAACG | 1.77 ± 0.031 | 1.85 ± 0.15
GUAGGG | 1.55 ± 0.11 | 1.71 ± 0.025
GUAGGC | 1.6 ± 0.064 | 1.78 ± 0.048
GUAGGU | 1.6 ± 0.028 | 1.8 ± 0.1
AUAACC | 1.75 ± 0.072 | 1.83 ± 0.1
AUAACU | 1.67 ± 0.025 | 1.82 ± 0.068
AUAACA | 1.62 ± 0.003 | 1.77 ± 0.14
UUAGGA | 1.57 ± 0.079 | 1.76 ± 0.089
UUAGGG | 1.65 ± 0.018 | 1.8 ± 0.12
UUAGGU | 1.7 ± 0.042 | 1.86 ± 0.1
UUAGGC | 1.7 ± 0.021 | 1.83 ± 0.14

Variant | normalized RNA/DNA level without ligand (log10) [1] | normalized RNA/DNA level with ligand (log10) [2]
AUAAUC | 1.677 ± 0.0067 | 1.77 ± 0.08
AUAAUG | 1.58 ± 0.034 | 1.75 ± 0.059
CUAUUG | 1.626 ± 0.0055 | 1.81 ± 0.1
CUAUUU | 1.59 ± 0.024 | 1.75 ± 0.08
CUAUUC | 1.7 ± 0.012 | 1.85 ± 0.1
CUAUAG | 1.679 ± 0.012 | 1.84 ± 0.15
CUAUAU | 1.64 ± 0.035 | 1.77 ± 0.13
CUAUAC | 1.696 ± 0.016 | 1.83 ± 0.1
CUCACC | 1.7 ± 0.079 | 1.825 ± 0.013
CUCACG | 1.78 ± 0.037 | 1.86 ± 0.16
CUCACA | 1.66 ± 0.033 | 1.83 ± 0.13
UUAACA | 1.7 ± 0.019 | 1.8 ± 0.091
UUAACC | 1.78 ± 0.073 | 1.85 ± 0.14
UUAACG | 1.81 ± 0.054 | 1.88 ± 0.11
UUAACU | 1.77 ± 0.02 | 1.87 ± 0.071
GUAAGU | 1.65 ± 0.033 | 1.77 ± 0.061
GUAAGC | 1.58 ± 0.028 | 1.76 ± 0.16
AUAUGU | 1.623 ± 0.0061 | 1.8 ± 0.15
AUAUGA | 1.43 ± 0.066 | 1.63 ± 0.071
AUAUGG | 1.56 ± 0.033 | 1.75 ± 0.14
AUAUGC | 1.67 ± 0.021 | 1.83 ± 0.13
UUACGU | 1.66 ± 0.03 | 1.8 ± 0.079
UUACGA | 1.77 ± 0.046 | 1.87 ± 0.11

Variant | normalized RNA/DNA level without ligand (log10) [1] | normalized RNA/DNA level with ligand (log10) [2]
UUACGC | 1.739 ± 0.011 | 1.86 ± 0.1
UUACGG | 1.82 ± 0.058 | 1.9 ± 0.094
UUAAUC | 1.77 ± 0.075 | 1.83 ± 0.14
UUAAUU | 1.76 ± 0.072 | 1.88 ± 0.12
UUAAUA | 1.64 ± 0.044 | 1.8 ± 0.16
AUAGGA | 1.35 ± 0.13 | 1.55 ± 0.15
AUAGGC | 1.55 ± 0.023 | 1.76 ± 0.18
GUAAUC | 1.35 ± 0.22 | 1.56 ± 0.12
GUAAUU | 1.689 ± 0.016 | 1.78 ± 0.054
GUAAUA | 1.59 ± 0.044 | 1.73 ± 0.045
AUAUCG | 1.56 ± 0.022 | 1.75 ± 0.068
AUAUCU | 1.73 ± 0.062 | 1.86 ± 0.13
AUAUCA | 1.63 ± 0.032 | 1.79 ± 0.12
GGUUGU | 1.7 ± 0.061 | 1.86 ± 0.16
CUACGU | 1.73 ± 0.017 | 1.82 ± 0.081
CUACGG | 1.8 ± 0.061 | 1.89 ± 0.08
CUACGC | 1.74 ± 0.043 | 1.86 ± 0.084
CUAGCC | 1.77 ± 0.022 | 1.83 ± 0.075
CUAGCA | 1.71 ± 0.064 | 1.78 ± 0.13
CUAGCG | 1.772 ± 0.015 | 1.85 ± 0.18
CUAGCU | 1.72 ± 0.027 | 1.85 ± 0.13
CGUUUG | 1.71 ± 0.02 | 1.86 ± 0.069
CGUUUC | 1.59 ± 0.025 | 1.78 ± 0.11

Variant | normalized RNA/DNA level without ligand (log10) [1] | normalized RNA/DNA level with ligand (log10) [2]
CUACCA | 1.621 ± 0.016 | 1.79 ± 0.12
CUACCC | 1.76 ± 0.046 | 1.88 ± 0.1
CUACCG | 1.82 ± 0.095 | 1.91 ± 0.098
CUACCU | 1.59 ± 0.032 | 1.77 ± 0.078
UUAGAG | 1.63 ± 0.0024 | 1.76 ± 0.047
UUAGAA | 1.56 ± 0.043 | 1.73 ± 0.088
UUAGAU | 1.7 ± 0.031 | 1.83 ± 0.082
UUAGAC | 1.702 ± 0.0078 | 1.83 ± 0.1
GUACUU | 1.7 ± 0.036 | 1.81 ± 0.15
GUACUG | 1.58 ± 0.033 | 1.78 ± 0.081
GUACUC | 1.54 ± 0.099 | 1.75 ± 0.041
GUACUA | 1.61 ± 0.036 | 1.8 ± 0.065
GGUUUU | 1.7 ± 0.015 | 1.84 ± 0.077
GGUUUA | 1.582 ± 0.0053 | 1.79 ± 0.099
GGUUUC | 1.8 ± 0.12 | 1.86 ± 0.12
AUCAAG | 1.57 ± 0.1 | 1.76 ± 0.062
AUCAAA | 1.57 ± 0.059 | 1.77 ± 0.074
AUCAAC | 1.61 ± 0.063 | 1.8 ± 0.09
AUCAAU | 1.64 ± 0.026 | 1.77 ± 0.15
UUCAAA | 1.611 ± 0.0055 | 1.79 ± 0.057
UUCAAG | 1.689 ± 0.0038 | 1.82 ± 0.086
AUAGAG | 1.46 ± 0.13 | 1.73 ± 0.082
AUAGAU | 1.58 ± 0.056 | 1.72 ± 0.12

Variant | normalized RNA/DNA level without ligand (log10) [1] | normalized RNA/DNA level with ligand (log10) [2]
GUCAAC | 1.65 ± 0.055 | 1.79 ± 0.14
GUCAAG | 1.57 ± 0.031 | 1.75 ± 0.077
AUACUA | 1.597 ± 0.0074 | 1.78 ± 0.18
AUACUG | 1.56 ± 0.049 | 1.73 ± 0.086
AUACUC | 1.74 ± 0.022 | 1.87 ± 0.072
AUACUU | 1.658 ± 0.0084 | 1.83 ± 0.13
AUAUUU | 1.67 ± 0.018 | 1.84 ± 0.11
AUAUUG | 1.6 ± 0.052 | 1.78 ± 0.15
AUAUUC | 1.707 ± 0.0056 | 1.84 ± 0.12
AUAUUA | 1.56 ± 0.05 | 1.76 ± 0.057
AUAAGC | 1.6 ± 0.022 | 1.77 ± 0.082
AUAAGU | 1.55 ± 0.033 | 1.73 ± 0.12
AUAAGG | 1.54 ± 0.057 | 1.71 ± 0.12
AUAAGA | 1.4 ± 0.11 | 1.62 ± 0.12
GUCACC | 1.708 ± 0.011 | 1.85 ± 0.055
GUCACA | 1.663 ± 0.0013 | 1.77 ± 0.17
CUAGAU | 1.65 ± 0.017 | 1.79 ± 0.069
CUAGAG | 1.589 ± 0.011 | 1.74 ± 0.08
GUACGU | 1.63 ± 0.039 | 1.81 ± 0.063
UUACAG | 1.707 ± 0.0067 | 1.86 ± 0.14
UUACAA | 1.639 ± 0.0043 | 1.82 ± 0.07
UUACAC | 1.73 ± 0.034 | 1.84 ± 0.11
UUACAU | 1.677 ± 0.014 | 1.82 ± 0.1
